Patent US20180148504A1

Tests used:
[1] = target: recombinant purified FRα (ECL assay calibrator) (human) (UniProt P15328); assay: ECL sandwich competition; competitors 9F3 capture / 24F12 detection; FRα standard STD04; MORAb-003 10 µg/mL
[2] = target: recombinant purified FRα (ECL assay calibrator) (human) (UniProt P15328); assay: ECL sandwich competition; competitors 9F3 capture / 24F12 detection; FRα standard STD06; MORAb-003 10 µg/mL
[3] = target: recombinant purified FRα (ECL assay calibrator) (human) (UniProt P15328); assay: ECL sandwich competition; competitors 9F3 capture / 24F12 detection; FRα standard STD07; MORAb-003 50 µg/mL
[4] = target: endogenous folate receptor alpha in human serum and plasma samples (human) (UniProt P15328); assay: ECL sandwich competition; competitors 24H8.D3 capture / 19D4.B7 detection; plasma samples; MORAb-003 100 µg/mL
endogenous folate receptor alpha in human serum and plasma samples (human), sequence (P15328 25-234 limits assumed, form in doubt): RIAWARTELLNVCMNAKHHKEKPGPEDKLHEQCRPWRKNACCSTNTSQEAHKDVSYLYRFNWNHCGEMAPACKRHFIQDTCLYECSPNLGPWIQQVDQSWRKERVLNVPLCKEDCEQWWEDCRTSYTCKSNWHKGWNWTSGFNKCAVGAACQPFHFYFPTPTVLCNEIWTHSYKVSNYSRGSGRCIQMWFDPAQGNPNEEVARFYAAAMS

[5] = target: endogenous folate receptor alpha in human serum and plasma samples (human) (UniProt P15328); assay: ECL sandwich capture 19D2.G9 / detection 26A9.C4; serum incubated overnight with 10 µg/mL MORAb-003
[6] = target: endogenous folate receptor alpha in human serum and plasma samples (human) (UniProt P15328); assay: ECL sandwich capture 19D4.B7 / detection 2F11.F8; serum incubated overnight with 10 µg/mL MORAb-003
[7] = target: endogenous folate receptor alpha in human serum and plasma samples (human) (UniProt P15328); assay: ECL sandwich capture 28H12.G9 / detection 19D4.B7; serum incubated overnight with 10 µg/mL MORAb-003
[8] = target: recombinant purified FRα (ECL assay calibrator) (human) (UniProt P15328); assay: ECL sandwich capture 24H8.D3 / detection 6A2.G7; calibrator incubated overnight with 10 µg/mL MORAb-003
[9] = target: endogenous folate receptor alpha in human serum and plasma samples (human) (UniProt P15328); assay: ECL sandwich capture 19D4.B7 / detection 1C6.E12.G8; serum incubated overnight with 10 µg/mL MORAb-003
[10] = target: recombinant purified FRα (ECL assay calibrator) (human) (UniProt P15328); assay: ECL sandwich capture 19D4.B7 / detection 6A2.G7; calibrator incubated overnight with 10 µg/mL MORAb-003
[11] = target: endogenous folate receptor alpha in human serum and plasma samples (human) (UniProt P15328); assay: ECL sandwich competition; competitors 24H8.D3 capture / 19D4.B7 detection; serum of sample #DLSO-015; MORAb-003 100 µg/mL
[12] = target: recombinant purified FRα (ECL assay calibrator) (human) (UniProt P15328); assay: ECL sandwich capture 19D4.B7 / detection 24H8.F3; calibrator incubated overnight with 10 µg/mL MORAb-003
[13] = target: recombinant purified FRα (ECL assay calibrator) (human) (UniProt P15328); assay: ECL sandwich capture 19D4.B7 / detection 26A9.C4; calibrator incubated overnight with 10 µg/mL MORAb-003
[14] = target: recombinant purified FRα (ECL assay calibrator) (human) (UniProt P15328); assay: ECL sandwich capture 19D4.B7 / detection 5C12.H8; calibrator incubated overnight with 10 µg/mL MORAb-003
[15] = target: recombinant purified FRα (ECL assay calibrator) (human) (UniProt P15328); assay: ECL sandwich capture 2F11.F8 / detection 19D4.B7; calibrator incubated overnight with 10 µg/mL MORAb-003
[16] = target: recombinant purified FRα (ECL assay calibrator) (human) (UniProt P15328); assay: ECL sandwich capture 19D4.B7 / detection 28H12.G9; calibrator incubated overnight with 10 µg/mL MORAb-003
[17] = target: recombinant purified FRα (ECL assay calibrator) (human) (UniProt P15328); assay: ECL sandwich capture 6A2.G7 / detection 1A8.G11.E7; calibrator incubated overnight with 10 µg/mL MORAb-003
[18] = target: recombinant purified FRα (ECL assay calibrator) (human) (UniProt P15328); assay: ECL sandwich capture 1C6.E12.G8 / detection 19D4.B7; calibrator incubated overnight with 10 µg/mL MORAb-003
[19] = target: recombinant purified FRα (ECL assay calibrator) (human) (UniProt P15328); assay: ECL sandwich capture 30G6.G6.G4.E9 / detection 6A2.G7; calibrator incubated overnight with 10 µg/mL MORAb-003
[20] = target: recombinant purified FRα (ECL assay calibrator) (human) (UniProt P15328); assay: ECL sandwich capture 19D2.G9 / detection 30G6.G6.G4.E9; calibrator incubated overnight with 10 µg/mL MORAb-003
[21] = target: recombinant purified FRα (ECL assay calibrator) (human) (UniProt P15328); assay: ECL sandwich capture 30G6.G6.G4.E9 / detection 28H12.G9; calibrator incubated overnight with 10 µg/mL MORAb-003
[22] = target: recombinant purified FRα (ECL assay calibrator) (human) (UniProt P15328); assay: ECL sandwich capture 1C6.E12.G8 / detection 30G6.G6.G4.E9; calibrator incubated overnight with 10 µg/mL MORAb-003
[23] = target: recombinant purified FRα (ECL assay calibrator) (human) (UniProt P15328); assay: ECL sandwich capture 30G6.G6.G4.E9 / detection 1C6.E12.G8; calibrator incubated overnight with 10 µg/mL MORAb-003
[24] = target: recombinant purified FRα (ECL assay calibrator) (human) (UniProt P15328); assay: ECL sandwich capture 30G6.G6.G4.E9 / detection 1A8.G11.E7; calibrator incubated overnight with 10 µg/mL MORAb-003

recombinant purified FRα (ECL assay calibrator) (human), sequence (P15328 25-234 limits assumed): as the sequence (P15328 25-234 limits assumed, form in doubt) above

B1: farletuzumab (MORAb-003) (antibody, part only; not given: Constant regions, V domains shown, not shown: another chain or arm of the molecule)
VH: EVQLVESGGGVVQPGRSLRLSCSASGFTFSGYGLSWVRQAPGKGLEWVAMISSGGSYTYYADSVKGRFAISRDNAKNTLFLQMDSLRPEDTGVYFCARHGDDPAWFAYWGQGTPVTVSS
VL: DIQLTQSPSSLSASVGDRVTITCSVSSSISSNNLHWYQQKPGKAPKPWIYGTSNLASGVPSRFSGSGSGTDYTFTISSLQPEDIATYYCQQWSSYPYMYTFGQGTKVEIK
% of signal without MORAb-003 (MORAb-003 interference) [1]: 73%
% of signal without MORAb-003 (MORAb-003 interference) [2]: 103%
% of signal without MORAb-003 (MORAb-003 interference) [3]: 88%
percent inhibition (median, plasma) [4]: 4%
Drug suppression of serum [5]: -55.6%
Drug suppression of serum [6]: 0.82%
Drug suppression of serum [7]: -73.2%
Drug Suppression of Cal Signal at 500 pg/mL [8]: -15%
Drug suppression of serum [9]: -6.01%
Drug Suppression of Cal Signal at 500 pg/mL [10]: -9%
percent inhibition (sample #DLSO-015, serum) [11]: 21%
Drug Suppression of Cal Signal at 500 pg/mL [12]: -14%
Drug Suppression of Cal Signal at 500 pg/mL [13]: -14%
Drug Suppression of Cal Signal at 500 pg/mL [14]: -10%
Drug Suppression of Cal Signal at 500 pg/mL [15]: -2%
Drug Suppression of Cal Signal at 500 pg/mL [16]: -21%
Drug Suppression of Cal Signal at 500 pg/mL [17]: 2%
Drug Suppression of Cal Signal at 500 pg/mL [18]: -11%
Drug Suppression of Cal Signal at 500 pg/mL [19]: -5%
Drug Suppression of Cal Signal at 500 pg/mL [20]: -4%
Drug Suppression of Cal Signal at 500 pg/mL [21]: -15%
Drug Suppression of Cal Signal at 500 pg/mL [22]: -9%
Drug Suppression of Cal Signal at 500 pg/mL [23]: -7%
Drug Suppression of Cal Signal at 500 pg/mL [24]: 2%
